Article PMC10716038, “Talin and kindlin use integrin tail allostery and direct binding to activate integrins” (Nature Structural & Molecular Biology, 2023)
Positions count from the first letter of the chain named. Names may count otherwise. “And” between values parts separate entries of the source, which are not always exact repeats. Identical values can stand only once. No end group written: not given here.

T1: biotinylated integrin β3 transmembrane and cytoplasmic tail polypeptide (β3-TM–CT) in nanodiscs (UniProt O54890 715-787, biotin (biotin-maleimide))
T1 construct: integrin β3 TM and CT, residues 715-787; embedded in MSP2N2 nanodiscs with 10% PIP2 or PIP3 and 90% DMPC; held on streptavidin beads; also called b3; source: E. coli BL21 (DE3) Rosetta 2, inclusion bodies, purified (IMAC, cation exchange)
T1 sequence (looked up): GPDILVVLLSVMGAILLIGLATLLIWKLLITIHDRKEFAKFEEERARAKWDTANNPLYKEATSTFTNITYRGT

B1: kindlin-2 (KIND2) (natural protein, UniProt Q8CIB5 1-680, looked up)
chain: MALDGIRMPDGCYADGTWELSVHVTDLNRDVTLRVTGEVHIGGVMLKLVEKLDVKKDWSDHALWWEKKRTWLLKTHWTLDKCGIQADAKLQFTPQHKLLRLQLPNMKYVKVKVNFSDRVFKAVSDICKTFNIRHPEELSLLKKPRDPTKKKKKKLDDQSEDEALELEGPLIMPGSGSIYSSPGLYSKTMTPTYDAHDGSPLSPTSAWFGDSALSEGNPGILAVSQPVTSPEILAKMFKPQALLDKAKTNQGWLDSSRSLMEQDVKENEALLLRFKYYSFFDLNPKYDAIRINQLYEQAKWALLLEEIECTEEEMMMFAALQYHINKLSIMTSENHLNNSDKEVDEVDAALSDLEITLEGGKTSTILGDITSIPELADYIKVFKPKKLTLKGYKQYWCTFKDTSISCYKSREESSGTPAHQLNLRGCEVTPDVNISGQKFNIKLLIPVAEGMNEIWLRCDNEKQYAHWMAACRLASKGKTMADSSYNLEVQNILSFLKMQHLNPDPQLIPDQITTDVNPECLVSPRYLKKYKSKQITARILEAHQNVAQMSLIEAKMRFIQAWQSLPEFGITHFIARFQGGKREELIGIAYNRLIRMDASTGDAIKTWRFSNMKQWNVNWEIKMVTVEFADEVRLSFICTEVDCKVVHEFIGGYIFLSTRAKDQNESLDEEMFYKLTSGWV
notes: kindlin-2 (KIND2), recombinant; with the F1 loop and the PH domain (unlike ΔKIND2); source: E. coli Rosetta, purified (IMAC, SEC); not shown: His10-SUMO, N-terminal, cleaved
B2: KIND2 Y13A (natural protein, UniProt Q8CIB5 1-680, looked up)
chain: B1 chain with Y13A
notes: kindlin-2 (KIND2), recombinant, Y13A; source: E. coli Rosetta, purified (IMAC, SEC); not shown: His10-SUMO, N-terminal, cleaved
B3: ATTO 488-labeled talin-binding-impaired β3-CT Y772A (peptide, UniProt O54890 741-787, looked up)
peptide: {ATTO 488}-KLLITIHDRKEFAKFEEERARAKWDTANNPLAKEATSTFTNITYRGT
notes: integrin β3 cytoplasmic tail (β3-CT), Y772A; source: synthetic peptide (MPIB Core Facility)
B4: THD1 K402E (domain or fragment, UniProt P26039 1-405, looked up)
chain: MVALSLKISIGNVVKTMQFEPSTMVYDACRMIRERIPEALAGPPNDFGLFLSDDDPKKGIWLEAGKALDYYMLRNGDTMEYRKKQRPLKIRMLDGTVKTIMVDDSKTVTDMLMTICARIGITNHDEYSLVRELMEEKKDEGTGTLRKDKTLLRDEKKMEKLKQKLHTDDELNWLDHGRTLREQGVEEHETLLLRRKFFYSDQNVDSRDPVQLNLLYVQARDDILNGSHPVSFDKACEFAGFQCQIQFGPHNEQKHKAGFLDLKDFLPKEYVKQKGERKIFQAHKNCGQMSEIEAKVRYVKLARSLKTYGVSFFLVKEKMKGKNKLVPRLLGITKECVMRVDEKTKEVIQEWSLTNIKRWAASPKSFTLDFGDYQDGYYSVQTTEGEQIAQLIAGYIDIILKEKKS
notes: talin-1 (TLN1) head domain, residues 1-405, K402E; source: E. coli (DE3) Rosetta 2, purified (IMAC, SEC); not shown: His10-SUMO, N-terminal, cleaved

What was measured:
Conditions in all cases: both partners purified
[1] = target: T2, biotinylated integrin β1 transmembrane and cytoplasmic tail polypeptide (β1-TM–CT) in nanodiscs (UniProt P09055 726-798, biotin (biotin-maleimide)); assay: flow cytometry-based reporter-displacement assay (FC-RDA) on beads; biotinylated TM–CT in PIP2-containing nanodiscs on streptavidin beads; reporter 565–THD1-K402E, unlabelled competitor titrated; IC50 of individual experiments
T2 construct: integrin β1 TM and CT, residues 726-798; embedded in MSP2N2 nanodiscs with 10% PIP2 or PIP3 and 90% DMPC, on average one TM–CT per nanodisc; held on streptavidin beads; also called b1; source: E. coli BL21 (DE3) Rosetta 2, inclusion bodies, purified (IMAC, cation exchange)

[2] = target: T1, biotinylated integrin β3 transmembrane …; assay: as above
[3] = target: T2, biotinylated integrin β1 transmembrane …; assay: flow cytometry-based reporter-displacement assay (FC-RDA) on beads; biotinylated TM–CT in 10% PIP2/90% DMPC nanodiscs on streptavidin beads; reporter 50 nM 647–KIND2, unlabelled competitor titrated; 20 mM Tris pH 7.5, 200 mM NaCl, room temperature; IC50 of individual experiments; charged lipids contribute to the binding
[4] = target: T1, biotinylated integrin β3 transmembrane …; assay: flow cytometry-based reporter-displacement assay (FC-RDA) on beads; biotinylated TM–CT in 10% PIP3/90% DMPC nanodiscs on streptavidin beads; reporter 100 nM 565–THD1, unlabelled competitor titrated; 20 mM Tris pH 7.5, 200 mM NaCl, room temperature; IC50 of individual experiments; charged lipids contribute to the binding
[5] = target: T1, biotinylated integrin β3 transmembrane …; assay: flow cytometry-based reporter-displacement assay (FC-RDA) on beads; biotinylated TM–CT in 10% PIP3/90% DMPC nanodiscs on streptavidin beads; reporter 50 nM 647–KIND2, unlabelled competitor titrated; 20 mM Tris pH 7.5, 200 mM NaCl, room temperature; IC50 of individual experiments; charged lipids contribute to the binding
[6] = target: T2, biotinylated integrin β1 transmembrane …; assay: flow cytometry-based reporter-displacement assay (FC-RDA) on beads; biotinylated TM–CT in PIP2-containing nanodiscs on streptavidin beads; reporter 647–KIND2-Y13A, unlabelled competitor titrated; IC50 of individual experiments
[7] = target: T1, biotinylated integrin β3 transmembrane …; assay: as above
[8] = target: T2, biotinylated integrin β1 transmembrane …; assay: flow cytometry-based reporter-displacement assay (FC-RDA) on beads; biotinylated TM–CT in PIP3-containing nanodiscs on streptavidin beads; reporter 647–KIND2-Y13A, unlabelled competitor titrated; IC50 of individual experiments
[9] = target: T1, biotinylated integrin β3 transmembrane …; assay: as above
[10] = target: T2, biotinylated integrin β1 transmembrane …; assay: flow cytometry-based reporter-displacement assay (FC-RDA) on beads; biotinylated TM–CT in 10% PIP2/90% DMPC nanodiscs on streptavidin beads; reporter 100 nM 565–THD1, unlabelled competitor titrated; 20 mM Tris pH 7.5, 200 mM NaCl, room temperature; IC50 of individual experiments; charged lipids contribute to the binding
[11] = target: T2, biotinylated integrin β1 transmembrane …; assay: flow cytometry-based reporter-displacement assay (FC-RDA) on beads; biotinylated TM–CT in 10% PIP3/90% DMPC nanodiscs on streptavidin beads; reporter 100 nM 565–THD1, unlabelled competitor titrated; 20 mM Tris pH 7.5, 200 mM NaCl, room temperature; IC50 of individual experiments; charged lipids contribute to the binding
[12] = target: T1, biotinylated integrin β3 transmembrane …; assay: as above; remark: listed apart in the source
kindlin-2 (KIND2) [13] = target: B1; assay: MST; apparent; KIND2 titrated to 488–β3-CT Y772A in the presence of 500 µM THD1; MST buffer
kindlin-2 (KIND2) [14] = target: B1; assay: MST; unlabelled protein titrated to 50-200 nM ATTO 488-labelled β-CT peptide, no third protein; 20 mM Tris pH 7.5, 200 mM NaCl, 1 mM TCEP, 0.05% Tween-20; Kd of individual titrations (in S0002 mean and sd, n = 2)
[15] = target: T2, biotinylated integrin β1 transmembrane …; assay: flow cytometry-based reporter-displacement assay (FC-RDA) on beads; biotinylated TM–CT in 10% PIP2/90% DMPC nanodiscs on streptavidin beads; reporter 50 nM 647–KIND2, unlabelled competitor titrated; 20 mM Tris pH 7.5, 200 mM NaCl, room temperature; IC50 of individual experiments; charged lipids contribute to the binding; remark: listed apart in the source
[16] = target: T1, biotinylated integrin β3 transmembrane …; assay: as above
[17] = target: T2, biotinylated integrin β1 transmembrane …; assay: flow cytometry-based reporter-displacement assay (FC-RDA) on beads; biotinylated TM–CT in 10% PIP3/90% DMPC nanodiscs on streptavidin beads; reporter 50 nM 647–KIND2, unlabelled competitor titrated; 20 mM Tris pH 7.5, 200 mM NaCl, room temperature; IC50 of individual experiments; charged lipids contribute to the binding

T2 sequence (P09055 726-798): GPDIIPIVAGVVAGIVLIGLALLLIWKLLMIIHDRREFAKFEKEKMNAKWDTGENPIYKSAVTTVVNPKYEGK

B1
IC50 [1]: 514 nM and 512 nM and 396 nM and 487 nM
IC50 [2]: 116 nM and 65 nM
IC50 [3]: 151 nM and 155 nM and 176 nM and 77 nM
IC50 [4]: 760 nM and 573 nM and 678 nM
IC50 [5]: 79 nM and 90 nM and 69 nM

B2
IC50 [6]: 78 nM and 91 nM and 124 nM
IC50 [7]: 112 nM and 238 nM and 305 nM
IC50 [8]: 56 nM and 119 nM and 60 nM
IC50 [9]: 121 nM and 167 nM and 233 nM
IC50 [10]: 203 nM and 479 nM and 290 nM
IC50 [11]: 168 nM and 223 nM and 116 nM
IC50 [12]: 176 nM and 234 nM and 205 nM and 83 nM

B3
Kd (kindlin-2 (KIND2) [13]): 17900 nM and 15300 nM and 23300 nM and 13400 nM
Kd (kindlin-2 (KIND2) [14]): 20300 nM and 13800 nM and 12500 nM

B4
IC50 [15]: 271 nM and 366 nM and 201 nM and 258 nM
IC50 [16]: 186 nM and 206 nM and 276 nM and 136 nM
IC50 [17]: 332 nM and 291 nM and 217 nM and 447 nM
